In US20150125397A1, “DUAL SPECIFIC BINDING PROTEINS DIRECTED AGAINST IMMUNE CELL RECEPTORS AND AUTOANTIGENS” (ABBVIE INC., priority 2013, published 2015):

T1: mIgM (Mus musculus, UniProt P01872)
T1 sequence (P01872 1-454): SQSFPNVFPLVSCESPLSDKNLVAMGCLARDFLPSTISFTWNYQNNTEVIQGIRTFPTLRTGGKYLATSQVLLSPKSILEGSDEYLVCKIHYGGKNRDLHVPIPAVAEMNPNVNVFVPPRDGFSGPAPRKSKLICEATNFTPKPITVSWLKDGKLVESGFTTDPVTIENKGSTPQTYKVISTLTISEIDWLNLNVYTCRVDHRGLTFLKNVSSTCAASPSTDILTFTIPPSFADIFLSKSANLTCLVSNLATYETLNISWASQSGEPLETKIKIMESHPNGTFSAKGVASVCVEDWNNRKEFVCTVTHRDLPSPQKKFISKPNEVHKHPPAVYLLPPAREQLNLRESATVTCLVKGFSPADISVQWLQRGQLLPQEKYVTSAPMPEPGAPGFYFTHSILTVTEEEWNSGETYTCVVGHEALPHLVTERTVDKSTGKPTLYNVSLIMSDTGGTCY


How the values were obtained:
mIgM = molecular target: T1, mIgM; assay: IgM binding ELISA (mouse IgM); conditions: for potency in IgM binding assay: among DVD3751-DVD3760; for IgM Binding EC50: mIgM-coated ELISA, half-log dilution 10 μg/ml-0.01 μg/ml
Procedure: Reactivity of the DVD-Ig proteins with mIgM was determined by enzyme-linked immunosorbent assay (ELISA). Briefly, each well of an Ultra Cruz 96 well microtiter plate (Santa Cruz Biotechnology, Dallas, Tex.) was coated with mIgM at a concentration of 1 μg/ml in 100 μl of PBS. The plate was covered in plastic wrap and incubated overnight at 4° C. Each well of the plate was then washed 3× with 300 μl of PBST. After the final wash, 200 μl of blocking buffer (1% BSA in PBS) was added to each well and the plate incubated at RT for 2 hours. The plate was then washed as above. Rows B-H of the microtiter plate were filled with 100 μl of dilution buffer (1% BSA in PBST). The DVD-Ig proteins were then diluted to […] in dilution buffer and 147 μl of a DVD-Ig protein was added in duplicate to row A of a 96 well plate. For a ½ log dilution, 47 μl was transferred from row A to row B. The pipette tips were replaced with clean tips and 47 μl from row B was transferred to row C. The serial transfers were repeated as above until row G. To assess the binding of the secondary detection reagent to the coated IgM, the final transfer 47 μl was only transferred from G1-G10 to H1-H10 and wells H11 and H12 were left containing 100 μl of dilution buffer. To maintain a 100 μl assay volume, 47 μl was removed from wells H1-H10 and G11-G12 and discarded. After the serial dilution was completed, the plate was incubated for 1-2 hours at RT. The plate was washed as above and then 100 μl of horseradish peroxidase conjugated goat α-hIgG Fc specific, diluted 1:3,000 in dilution buffer, was added to each well. The plate was incubated for 1 hour at RT and then washed 4× as above. The plate was developed by adding 100 μl of 3′,3′,5′,5′-Tetramethylbenzidine (TMB) substrate solution to each well and incubating the plate in the dark for 10-15 minutes. The enzymatic reaction was stopped by adding 100 μl of 1M H2SO4 to each well. The plate was read at 450 nm on an EnVision 2102 multilabel reader (Perkin Elmer, Waltham, Mass.).
DVD-Ig proteins DVD3751-DVD3760 were characterized by IgM binding assay at half-log dilution starting at 10 μg/ml-0.01 μg/ml according to the method of Example 2.5.
IgM binding ELISA: Titrations of the DVD-Ig™ proteins (10 μg/ml to 0.01 μg/ml) were added to ELISA plates coated with murine IgM. Bound antibody was detected with biotinylated anti-human IgG and streptavidin-HRP. EC50 were calculated from the titration curve using Prism6.

DNA = assay: Antinuclear antibody (ANA) test; type: binding; set-up: key to ANA score, relative result: (X)-(XXX) indicates relative results; (XX): (X)-(XXX) indicates relative results; (X)-(XXX) indicates relative results
Procedure: The cloned BWR4 and PA4 antibodies as well as the DVD-Ig proteins were tested for ANA reactivity using the ANA test kit. Briefly, the DVD-Ig proteins and antibodies were diluted to […] in blocking buffer (1% BSA in PBS). The DVD-Ig proteins and antibodies were added to separate wells of an ANA slide at 50 μl/well and incubated in a moist chamber for 2 hours at room temperature (RT). The wells were then washed 3× with PBS. To detect bound antibodies, Alexa Fluor 488 conjugated goat α-human IgG (α-hIgG) was then added at a dilution of 1:1,000 and the slide incubated in a moist chamber for 1 hour. Unbound detecting antibody was removed by immersing the slide in a jar containing PBS and incubating for 10 minutes at RT with gentle rocking. The prior step was repeated 2× and 10 μl of Prolong® Gold Antifade was added to each well and a 24 mm×60 mm #1 cover glass seated on top. The covered slide was incubated overnight at RT and then sealed by applying clear nail polish to the edges. Binding of the DVD-Ig proteins and antibodies to the slides was assessed by fluorescence microscopy.
DVD-Ig proteins DVD3751-DVD3760 were characterized by antinuclear antibody (ANA) staining at 10 μg/ml according to the method of Example 2.4.
ANA: HEp-2 human tissue culture substrate slides were incubated with 5 μg/ml of the anti-DNA-IgG2a or the DVD-Ig™ binding protein for 2 hours at RT. The slides were washed and bound antibodies were detected with Alexa-488 goat anti-human antibody or DyLight 488 goat anti-mouse antibody.

AM14 WT B cells = assay: [3H]thymidine incorporation, BCR/TLR9 stimulation of AM14 WT B cells; type: cell-based, mouse; set-up: key to 3H incorporation AM14 WT, relative result: (X)-(XXX) indicates relative results; (XX): (X)-(XXX) indicates relative results; (X)-(XXX) indicates relative results; level of 3H incorporation / 3H incorporation AM14 WT: dose or concentration left out as unconfirmed; conditions: for 3H incorporation AM14 WT: 24 hours, then 6 hours pulse
Source text: (§1) The AM14 B cell receptor (BCR) transgenic mouse has been described previously (Sweet et al. (2010) Autoimmun 43(8): 607-18). Briefly, AM14 is a BCR comprising the AM14 heavy chain and the Vk8 light chain that recognizes murine IgG2a (mIgG2a) of the “a” allotype. Between 95-98% of B cells in a mouse positive for the AM14 heavy chain and Vk8 light chain express the AM14 BCR. To generate AM14 B cells that are deficient in TLR9, TLR7 or FcγRIIB, the AM14 and Vk8 genes were bred to the appropriate knock out mice.
(§2) Primary murine B cells were purified by positive selection using BD Imag™ CD45R/B220 magnetic particles (BD Biosciences, San Jose, Calif.). Briefly, B cells were cultured in RPMI containing, pencillin-streptomycin, β-mercaptoethanol, and 5% heat-inactivated fetal calf serum (FCS) in 96 well flat bottom plates at a density of 4×10^5 cells/well. For stimulation through the BCR and TLR9, B cells were treated with a titration of 0.3 μg/ml-0.03 μg/ml of PA4 or 5 μg/ml to 0.15 μg/ml of a DVD-Ig protein (DVD3751, DVD3752, DVD3754, DVD3755, DVD3759 and DVD3760), unless otherwise noted. Cells were also treated with 1 μg/ml 1826, an experimental ligand for TLR9, as a control. After 24 hours, the cells were pulsed for 6 hours with [3H]thymidine (Perkin Elmer, Waltham Mass.). Incorporation of [3H]thymidine was quantified via a liquid scintillation beta counter (Trilux 1450 MicroBeta, PerkinElmer) according to standard methods.
(§3) DVD-Ig proteins DVD3751-DVD3760 were characterized by ^3H incorporation at […] according to the method of Example 2.6.

AM14 TLR9−/− B cells = assay: [3H]thymidine incorporation, BCR/TLR9 stimulation of AM14 TLR9-/- B cells; type: cell-based, mouse; conditions: at 5 mg/ml; 24 hours, then 6 hours pulse
Source text: as §1, §2, §3

| Molecule | potency in IgM binding assay (mIgM) | IgM Binding EC50 (mIgM) | ANA score (DNA; ANA staining at 10 μg/ml) | 3H incorporation AM14 WT, relative result (AM14 WT B cells) | 3H incorporation AM14 WT (AM14 WT B cells) | 3H incorporation AM14 TLR9−/− (AM14 TLR9−/− B cells) | level of ANA staining (DNA; 10 μg/ml, among DVD3751-DVD3760) | ANA score, relative result (DNA; ANA staining at 10 μg/ml) |
| --- | --- | --- | --- | --- | --- | --- | --- | --- |
| DVD3757: DVD-Ig: VD1 mIgM (B7.6), SS linker, VD2 DNA(PA4); heavy SEQ ID NO 60, light 61 (antibody) heavy: QVQLKESGPGLVKPSLTLSLTCTVSGFSLNGYGVIWVRQPPGKGLEWMGVIWGNGNTNYNSTLKSRLSISRDTSKSQVFLKMNNLQTEDTAMYFCARSENYYSSPGYFAYWGQGTLVTVSSASTKGPEVQLVESGGGLVKPGGSLKLSCVASGFTFSTYAMSWVRQTPTKRLEWVATISRGGVSTYYPDTVKGRFTISRDNAKNTLYLQMSSLRSEDTAMYYCARPPTIVTTWFAYWGQGTLVTVSS light: NTVMTQSPTSMFISVGDRVTMNCKASQNVGSDVDWYQQKTGQSPKLLISGTSNRYTGVPDRFTGSGSGTDFTLTISNMQAEDLAVYYCLQYNYNPTFGAGTKLELKRTVAAPDVVMTQTPLSLPVSLGDQASISCRSSQSLVHSNGNTYLHWYLQKPGQSPKLLIYKVSNRFSGVPDRFSGSGSGTDFTLKISRVEAEDLGAYFCSQSTHVPYTFGGPTRLEIKR | highest potency | 0.04178 mg/L | 1 | (X) | (4063) | (382) |  |  |
| DVD3752: DVD-Ig: VD1 DNA(PA4), SS linker, VD2 mIgM (B7.6); heavy SEQ ID NO 50, light 51 (antibody) heavy: EVQLVESGGGLVKPGGSLKLSCVASGFTFSTYAMSWVRQTPTKRLEWVATISRGGVSTYYPDTVKGRFTISRDNAKNTLYLQMSSLRSEDTAMYYCARPPTIVTTWFAYWGQGTLVTVSSASTKGPQVQLKESGPGLVKPSLTLSLTCTVSGFSLNGYGVIWVRQPPGKGLEWMGVIWGNGNTNYNSTLKSRLSISRDTSKSQVFLKMNNLQTEDTAMYFCARSENYYSSPGYFAYWGQGTLVTVSS light: DVVMTQTPLSLPVSLGDQASISCRSSQSLVHSNGNTYLHWYLQKPGQSPKLLIYKVSNRFSGVPDRFSGSGSGTDFTLKISRVEAEDLGAYFCSQSTHVPYTFGGPTRLEIKRTVAAPNTVMTQSPTSMFISVGDRVTMNCKASQNVGSDVDWYQQKTGQSPKLLISGTSNRYTGVPDRFTGSGSGTDFTLTISNMQAEDLAVYYCLQYNYNPTFGAGTKLELKR |  | 0.205 mg/L | 4 | (XX) | (12682) | (512) | highest level of staining | (XXX) |

The next lines start with results.

| potency in IgM binding assay (mIgM) | IgM Binding EC50 (mIgM) | Molecule | ANA score (DNA; ANA staining at 10 μg/ml) | 3H incorporation AM14 WT, relative result (AM14 WT B cells) | 3H incorporation AM14 WT (AM14 WT B cells) | 3H incorporation AM14 TLR9−/− (AM14 TLR9−/− B cells) | level of ANA staining (DNA; 10 μg/ml, among DVD3751-DVD3760) | ANA score, relative result (DNA; ANA staining at 10 μg/ml) |
| --- | --- | --- | --- | --- | --- | --- | --- | --- |
| highest potency | 0.0331 mg/L | DVD3756: DVD-Ig: VD1 mIgM (B7.6), GS linker, VD2 DNA(PA4); heavy SEQ ID NO 58, light 59 (antibody) heavy: QVQLKESGPGLVKPSLTLSLTCTVSGFSLNGYGVIWVRQPPGKGLEWMGVIWGNGNTNYNSTLKSRLSISRDTSKSQVFLKMNNLQTEDTAMYFCARSENYYSSPGYFAYWGQGTLVTVSSGGGGSGGGGSEVQLVESGGGLVKPGGSLKLSCVASGFTFSTYAMSWVRQTPTKRLEWVATISRGGVSTYYPDTVKGRFTISRDNAKNTLYLQMSSLRSEDTAMYYCARPPTIVTTWFAYWGQGTLVTVSS light: NTVMTQSPTSMFISVGDRVTMNCKASQNVGSDVDWYQQKTGQSPKLLISGTSNRYTGVPDRFTGSGSGTDFTLTISNMQAEDLAVYYCLQYNYNPTFGAGTKLELKRGGSGGGGSGDVVMTQTPLSLPVSLGDQASISCRSSQSLVHSNGNTYLHWYLQKPGQSPKLLIYKVSNRFSGVPDRFSGSGSGTDFTLKISRVEAEDLGAYFCSQSTHVPYTFGGPTRLEIKR | 1 | (X) | (7793) | (459) |  |  |
| highest potency | 0.03529 mg/L | DVD3760: DVD-Ig: VD1 mIgM (B7.6), LS linker, VD2 DNA(PA4); heavy SEQ ID NO 66, light 67 (antibody) heavy: QVQLKESGPGLVKPSLTLSLTCTVSGFSLNGYGVIWVRQPPGKGLEWMGVIWGNGNTNYNSTLKSRLSISRDTSKSQVFLKMNNLQTEDTAMYFCARSENYYSSPGYFAYWGQGTLVTVSSASTKGPSVFPLAPEVQLVESGGGLVKPGGSLKLSCVASGFTFSTYAMSWVRQTPTKRLEWVATISRGGVSTYYPDTVKGRFTISRDNAKNTLYLQMSSLRSEDTAMYYCARPPTIVTTWFAYWGQGTLVTVSS light: NTVMTQSPTSMFISVGDRVTMNCKASQNVGSDVDWYQQKTGQSPKLLISGTSNRYTGVPDRFTGSGSGTDFTLTISNMQAEDLAVYYCLQYNYNPTFGAGTKLELKRTVAAPDVVMTQTPLSLPVSLGDQASISCRSSQSLVHSNGNTYLHWYLQKPGQSPKLLIYKVSNRFSGVPDRFSGSGSGTDFTLKISRVEAEDLGAYFCSQSTHVPYTFGGPTRLEIKR | 1 | (X) | (4335) | (302) |  |  |
